Assay results published in PMC9187739, “MIF homolog d-dopachrome tautomerase (D-DT/MIF-2) does not inhibit accumulation and toxicity of misfolded SOD1” (Scientific Reports, 2022).

Molecular target: T1, human SOD1^G93A (Zn/Cu superoxide dismutase, glycine to alanine at position 93) (human, UniProt P00441 1-154, G93A)
T1 construct: Zn/Cu superoxide dismutase (SOD1), human, with the ALS-linked mutation G93A; The introduction calls SOD1 a 32 kDa homodimer; also called mutant SOD1^G93A; mutant SOD1; source: E. coli BL-21, grown without Zn2+ and Cu2+ supplements, purified to homogeneity under non-denaturing conditions
T1 sequence (P00441 whole entry G94A): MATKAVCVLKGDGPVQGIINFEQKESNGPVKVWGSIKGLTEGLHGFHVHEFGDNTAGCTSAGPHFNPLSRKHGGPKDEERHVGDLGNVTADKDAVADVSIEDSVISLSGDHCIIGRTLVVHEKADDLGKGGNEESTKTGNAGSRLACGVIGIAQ
Experiment: co-IP; purified SOD1^G93A (2 µg) incubated with recombinant D-DT (0.2, 0.5, 1, 2, 5 and 10 µg); immunoprecipitation overnight at 4 °C with B8H10 antibody (misfolded SOD1) crosslinked to protein G Dynabeads; IP buffer 0.05 M Tris pH 7.4, 0.4 M NaCl, 0.5% Nonidet P-40; bound and unbound fractions immunoblotted for SOD1 and D-DT
Settings: both partners purified

- binding result: binds
B1: recombinant human D-dopachrome tautomerase (D-DT/MIF-2) (enzyme)
chain: PFLELDTNLPANRVPAGLEKRLCAAAASILGKPADRVNVTVRPGLAMALSGSTEPCAQLSISSIGVVGTAEDNRSHSAHFFEFLTKELALGQDRILIRFFPLESWQIGKIGTVMTFL
notes: D-dopachrome tautomerase (D-DT, MIF-2), human; also called recombinant D-DT; source: recombinant
